Target: HIV-1 Rev protein (recombinant, expressed in E. coli, refolded) (HIV-1)
Assay: cell-based or functional assay

“nucleolar protein B23.1 (recombinant, produced in E. coli) (from UniProt P13084 1-292)” was tested, and the % inhibition of temperature-dependent Rev aggregation (turbidity at 360 nm, 20 minute time point) versus molar ratio of B23 to Rev (mol B23 per mol Rev) was 1.
